Source: patent publication US20220089707A1 (University of Texas, published 2022)

Target: T1, β2-microglobulin (UniProt P61769 21-119)
T1 construct: also called beta2-microglobulin
Assay: ELISA

T1 sequence (P61769 21-119 limits assumed): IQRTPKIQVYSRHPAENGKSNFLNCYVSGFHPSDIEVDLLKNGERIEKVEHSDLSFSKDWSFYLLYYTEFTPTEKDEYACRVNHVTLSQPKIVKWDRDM

B1: A2-DKK1 mAb (C2) (antibody, V domains shown)
VH: DVQLVESGGGLVQPGGSRKLSCAASGFTFSSFGMHWVRQAPEKGLEWVAYISSGSSTIYYADTVKGRFTISRDNPKNTLFLQMTSLRSEDTAMYYCARPYYYGSTYDAMDYWGQGTSVTVSS
VL: DIVMTQSHKLMSTSVGDRVTITCKASQDVGSTVAWYQQKPGQSPKLLIYWTSTRHTGVPDRFTGSGSGTDFTLTISNVQSVDLAVYFCQKFGSYPLTFGGGTKLEIK
notes: Murine monoclonal antibody from a Balb/c x SP2/0 hybridoma; also called C2 mAb; antibody C2
  binding result: no binding
